Assay results reported in patent US20160274110A1 (Novartis, published 2016).

B1: c10orf99 1-57, synthetic peptide KRRPAKAWSGRRTRLCCHRVPSPNSTNLKGHHVRLCKPCKLEPEPRLWVVPGALPQV (SEQ ID NO: 6) (ligand)
peptide: KRRPAKAWSGRRTRLCCHRVPSPNSTNLKGHHVRLCKPCKLEPEPRLWVVPGALPQV

Key:
[1] = target: T1, mouse GPR15 (mouse, UniProt Q0VDU3 1-360); assay: cell-based or functional assay
T1 sequence (looked up): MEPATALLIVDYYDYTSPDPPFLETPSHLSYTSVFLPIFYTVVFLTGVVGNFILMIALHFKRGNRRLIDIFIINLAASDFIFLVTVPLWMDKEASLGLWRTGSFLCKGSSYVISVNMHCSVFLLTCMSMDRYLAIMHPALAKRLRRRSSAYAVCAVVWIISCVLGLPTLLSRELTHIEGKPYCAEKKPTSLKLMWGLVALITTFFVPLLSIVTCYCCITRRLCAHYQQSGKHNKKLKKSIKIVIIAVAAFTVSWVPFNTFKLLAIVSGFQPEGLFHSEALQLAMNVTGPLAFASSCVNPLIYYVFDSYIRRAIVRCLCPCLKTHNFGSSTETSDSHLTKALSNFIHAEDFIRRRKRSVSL

[2] = target: T2, human GPR15 (human, UniProt P49685 1-360); assay: cell-based or functional assay
T2 sequence (looked up): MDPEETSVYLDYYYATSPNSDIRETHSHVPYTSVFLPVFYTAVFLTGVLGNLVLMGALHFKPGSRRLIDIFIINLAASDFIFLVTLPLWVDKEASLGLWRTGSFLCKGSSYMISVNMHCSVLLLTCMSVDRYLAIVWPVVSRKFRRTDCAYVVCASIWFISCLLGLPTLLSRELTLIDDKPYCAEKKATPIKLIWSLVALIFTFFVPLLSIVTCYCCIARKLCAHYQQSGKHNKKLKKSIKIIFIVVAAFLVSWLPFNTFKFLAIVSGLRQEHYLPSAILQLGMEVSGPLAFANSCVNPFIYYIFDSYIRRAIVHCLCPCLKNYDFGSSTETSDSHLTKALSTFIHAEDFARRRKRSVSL

Binder | EC50 of GPR15 activation, Aequorin assay (luminescence, calcium) [1] [nM] | EC50 of GPR15 activation, Aequorin assay (luminescence, calcium) [2] [nM] | EC50 in in vitro cellular assays (aequorin assay; cAMP in CHO-GPR15 and HEK-GPR15 cell lines) [2] [nM]
QKPQLWVVPGALPQV | ~2000 | ~2000 | –
B1 | – | – | < 10
